Measured values reported in article PMC5379955 (The Journal of Cell Biology, 2017).

B5: Zwilch (natural protein)
chain: not shown

Legend:
[1] = target: B5; experiment: SEC
[2] = target: T1, ROD^1–1,250 (human, UniProt P50748 1-1250); experiment: negative-stain EM 3D reconstruction
T1 sequence (looked up): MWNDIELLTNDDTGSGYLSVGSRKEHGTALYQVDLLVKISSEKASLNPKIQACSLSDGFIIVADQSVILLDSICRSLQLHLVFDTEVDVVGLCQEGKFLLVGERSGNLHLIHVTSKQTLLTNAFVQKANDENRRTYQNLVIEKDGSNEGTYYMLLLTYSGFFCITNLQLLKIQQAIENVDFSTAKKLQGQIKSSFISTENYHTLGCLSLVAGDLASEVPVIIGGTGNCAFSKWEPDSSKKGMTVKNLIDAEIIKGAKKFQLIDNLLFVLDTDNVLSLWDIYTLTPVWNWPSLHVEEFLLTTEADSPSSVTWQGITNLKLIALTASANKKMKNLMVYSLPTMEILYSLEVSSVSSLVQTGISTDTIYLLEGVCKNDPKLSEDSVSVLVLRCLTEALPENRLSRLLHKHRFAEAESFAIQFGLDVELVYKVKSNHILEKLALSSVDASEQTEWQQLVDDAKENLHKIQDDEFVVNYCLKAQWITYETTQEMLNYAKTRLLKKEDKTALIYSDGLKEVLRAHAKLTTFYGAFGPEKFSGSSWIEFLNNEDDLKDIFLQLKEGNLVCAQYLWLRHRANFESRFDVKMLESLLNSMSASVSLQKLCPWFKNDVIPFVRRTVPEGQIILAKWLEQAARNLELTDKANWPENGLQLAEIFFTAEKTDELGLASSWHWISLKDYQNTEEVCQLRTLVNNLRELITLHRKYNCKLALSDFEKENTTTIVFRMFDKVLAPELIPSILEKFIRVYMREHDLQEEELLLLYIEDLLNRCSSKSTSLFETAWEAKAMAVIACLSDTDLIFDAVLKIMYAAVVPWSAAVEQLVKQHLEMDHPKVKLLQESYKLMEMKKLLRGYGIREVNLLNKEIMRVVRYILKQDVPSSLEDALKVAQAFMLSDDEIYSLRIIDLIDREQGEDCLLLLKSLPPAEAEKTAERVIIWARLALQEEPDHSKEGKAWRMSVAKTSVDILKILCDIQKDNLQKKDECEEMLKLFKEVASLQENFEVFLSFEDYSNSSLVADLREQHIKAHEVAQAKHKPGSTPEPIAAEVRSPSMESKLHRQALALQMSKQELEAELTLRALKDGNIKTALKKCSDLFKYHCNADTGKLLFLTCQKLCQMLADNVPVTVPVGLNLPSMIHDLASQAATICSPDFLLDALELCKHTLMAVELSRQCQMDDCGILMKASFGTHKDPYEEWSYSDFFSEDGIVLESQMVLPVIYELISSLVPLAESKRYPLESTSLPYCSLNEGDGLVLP

[3] = target: T1, ROD^1–1,250; experiment: co-expression and co-purification
[4] = target: ROD–Zwilch–ZW10 (RZZ) complex (human, UniProt P50748 1-2209; Q9H900 1-591; O43264 1-779); experiment: AUC
ROD–Zwilch–ZW10 (RZZ) complex, sequence (Q9H900 whole entry, one chain of several): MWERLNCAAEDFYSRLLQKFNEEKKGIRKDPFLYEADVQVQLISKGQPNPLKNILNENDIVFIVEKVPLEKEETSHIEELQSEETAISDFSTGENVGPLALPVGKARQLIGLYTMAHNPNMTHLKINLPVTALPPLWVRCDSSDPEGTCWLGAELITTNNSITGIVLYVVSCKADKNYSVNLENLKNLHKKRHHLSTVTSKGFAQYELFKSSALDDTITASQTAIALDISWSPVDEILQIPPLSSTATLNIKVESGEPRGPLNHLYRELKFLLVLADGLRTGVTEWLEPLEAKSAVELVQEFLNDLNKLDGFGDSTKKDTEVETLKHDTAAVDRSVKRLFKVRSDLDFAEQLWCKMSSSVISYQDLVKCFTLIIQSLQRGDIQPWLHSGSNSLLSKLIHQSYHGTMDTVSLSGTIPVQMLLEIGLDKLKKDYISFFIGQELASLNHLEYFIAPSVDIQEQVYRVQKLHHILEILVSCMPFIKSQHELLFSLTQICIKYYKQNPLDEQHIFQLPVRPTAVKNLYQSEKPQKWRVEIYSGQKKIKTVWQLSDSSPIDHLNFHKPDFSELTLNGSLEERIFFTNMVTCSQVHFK

B1: ROD^Δ754–1,796 (domain or fragment, human)
chain: MWNDIELLTNDDTGSGYLSVGSRKEHGTALYQVDLLVKISSEKASLNPKIQACSLSDGFIIVADQSVILLDSICRSLQLHLVFDTEVDVVGLCQEGKFLLVGERSGNLHLIHVTSKQTLLTNAFVQKANDENRRTYQNLVIEKDGSNEGTYYMLLLTYSGFFCITNLQLLKIQQAIENVDFSTAKKLQGQIKSSFISTENYHTLGCLSLVAGDLASEVPVIIGGTGNCAFSKWEPDSSKKGMTVKNLIDAEIIKGAKKFQLIDNLLFVLDTDNVLSLWDIYTLTPVWNWPSLHVEEFLLTTEADSPSSVTWQGITNLKLIALTASANKKMKNLMVYSLPTMEILYSLEVSSVSSLVQTGISTDTIYLLEGVCKNDPKLSEDSVSVLVLRCLTEALPENRLSRLLHKHRFAEAESFAIQFGLDVELVYKVKSNHILEKLALSSVDASEQTEWQQLVDDAKENLHKIQDDEFVVNYCLKAQWITYETTQEMLNYAKTRLLKKEDKTALIYSDGLKEVLRAHAKLTTFYGAFGPEKFSGSSWIEFLNNEDDLKDIFLQLKEGNLVCAQYLWLRHRANFESRFDVKMLESLLNSMSASVSLQKLCPWFKNDVIPFVRRTVPEGQIILAKWLEQAARNLELTDKANWPENGLQLAEIFFTAEKTDELGLASSWHWISLKDYQNTEEVCQLRTLVNNLRELITLHRKYNCKLALSDFEKENTTTIVFRMFDKVLAPELIPSILEKFIRVYMREHDLQEEGGSGGGSGGGSGGGSGIHAAAKEIAEVNEINLEKVWDMLLEKWLCPSTKPGEKPSELFELQEDEALRRVQYLLLSRPIDYSSRMLFVFATSTTTTLGMHQLTFAHRTRALQCLFYLADKETIESLFKKPIEEVKSYLRCITFLASFETLNIPITYELFCSSPKEGMIKGLWKNHSHESMAVRLVTELCLEYKIYDLQLWNGLLQKLLGFNMIPYLRKVLKAISSIHSLWQVPYFSKAWQRVIQIPLLSASCPLSPDQLSDCSESLIAVLECPVSGDLDLIGVARQYIQLELPAFALACLMLMPHSEKRHQQIKNFLGSCDPQVILKQLEEHMNTGQLAGFSHQIRSLILNNIINKKEFGILAKTKYFQMLKMHAMNTNNITELVNYLANDLSLDEASVLITEYSKHCGKPVPPDTAPCEILKMFLSGLS
binding result [1]: binds

B2: ZW10 (natural protein, human, UniProt O43264 1-779, looked up)
chain: MASFVTEVLAHSGRLEKEDLGTRISRLTRRVEEIKGEVCNMISKKYSEFLPSMQSAQGLITQVDKLSEDIDLLKSRIESEVRRDLHVSTGEFTDLKQQLERDSVVLSLLKQLQEFSTAIEEYNCALTEKKYVTGAQRLEEAQKCLKLLKSRKCFDLKILKSLSMELTIQKQNILYHLGEEWQKLIVWKFPPSKDTSSLESYLQTELHLYTEQSHKEEKTPMPPISSVLLAFSVLGELHSKLKSFGQMLLKYILRPLASCPSLHAVIESQPNIVIIRFESIMTNLEYPSPSEVFTKIRLVLEVLQKQLLDLPLDTDLENEKTSTVPLAEMLGDMIWEDLSECLIKNCLVYSIPTNSSKLQQYEEIIQSTEEFENALKEMRFLKGDTTDLLKYARNINSHFANKKCQDVIVAARNLMTSEIHNTVKIIPDSKINVPELPTPDEDNKLEVQKVSNTQYHEVMNLEPENTLDQHSFSLPTCRISESVKKLMELAYQTLLEATTSSDQCAVQLFYSVRNIFHLFHDVVPTYHKENLQKLPQLAAIHHNNCMYIAHHLLTLGHQFRLRLAPILCDGTATFVDLVPGFRRLGTECFLAQMRAQKGELLERLSSARNFSNMDDEENYSAASKAVRQVLHQLKRLGIVWQDVLPVNIYCKAMGTLLNTAISEVIGKITALEDISTEDGDRLYSLCKTVMDEGPQVFAPLSEESKNKKYQEEVPVYVPKWMPFKELMMMLQASLQEIGDRWADGKGPLAAAFSSSEVKALIRALFQNTERRAAALAKIK
binding result [2]: binds | binding result [3]: binds

B3: farnesylated Spindly (Spindly^Farn) (natural protein, human, UniProt Q96EA4 1-605, looked up)
chain: MEADIITNLRCRLKEAEEERLKAAQYGLQLVESQNELQNQLDKCRNEMMTMTESYEQEKYTLQREVELKSRMLESLSCECEAIKQQQKMHLEKLEEQLSRSHGQEVNELKTKIEKLKVELDEARLSEKQLKHQVDHQKELLSCKSEELRVMSERVQESMSSEMLALQIELTEMESMKTTLKEEVNELQYRQEQLELLITNLMRQVDRLKEEKEEREKEAVSYYNALEKARVANQDLQVQLDQALQQALDPNSKGNSLFAEVEDRRAAMERQLISMKVKYQSLKKQNVFNREQMQRMKLQIATLLQMKGSQTEFEQQERLLAMLEQKNGEIKHLLGEIRNLEKFKNLYDSMESKPSVDSGTLEDNTYYTDLLQMKLDNLNKEIESTKGELSIQRMKALFESQRALDIERKLFANERCLQLSESENMKLRAKLDELKLKYEPEETVEVPVLKKRREVLPVDITTAKDACVNNSALGGEVYRLPPQKEETQSCPNSLEDNNLQLEKSVSIYTPVVSLSPHKNLPVDMQLKKEKKCVKLIGVPADAEALSERSGNTPNSPRLAAESKLQTEVKEGKETSSKLEKETCKKLHPILYVSSKSTPETQCPQQ
modifications: farnesyl on Cys602
stoichiometry N [4]: 2 copies of each subunit

B4: mCherry–Spindly^Farn (natural protein, human, UniProt Q96EA4 1-605, looked up)
chain: MEADIITNLRCRLKEAEEERLKAAQYGLQLVESQNELQNQLDKCRNEMMTMTESYEQEKYTLQREVELKSRMLESLSCECEAIKQQQKMHLEKLEEQLSRSHGQEVNELKTKIEKLKVELDEARLSEKQLKHQVDHQKELLSCKSEELRVMSERVQESMSSEMLALQIELTEMESMKTTLKEEVNELQYRQEQLELLITNLMRQVDRLKEEKEEREKEAVSYYNALEKARVANQDLQVQLDQALQQALDPNSKGNSLFAEVEDRRAAMERQLISMKVKYQSLKKQNVFNREQMQRMKLQIATLLQMKGSQTEFEQQERLLAMLEQKNGEIKHLLGEIRNLEKFKNLYDSMESKPSVDSGTLEDNTYYTDLLQMKLDNLNKEIESTKGELSIQRMKALFESQRALDIERKLFANERCLQLSESENMKLRAKLDELKLKYEPEETVEVPVLKKRREVLPVDITTAKDACVNNSALGGEVYRLPPQKEETQSCPNSLEDNNLQLEKSVSIYTPVVSLSPHKNLPVDMQLKKEKKCVKLIGVPADAEALSERSGNTPNSPRLAAESKLQTEVKEGKETSSKLEKETCKKLHPILYVSSKSTPETQCPQQ
modifications: farnesyl on Cys602
stoichiometry N [4]: 2 copies of each subunit

B5
binding result [2]: binds | binding result [3]: binds
